B1: TPR t1 (parent)
chain: GACCAAUCUGCCCUCAGAGCUCGAGAACAUCUUCGGAUGCAGAGGAGGCAGGCUUCGGUGGCGCGAUAGCGCCAACGUCCUCAACCUCCAAUGCAUCCCACCACAUGAUGAUGCCUGAAGAGCCUUGGUUUUUUG

Variants of: B1
Assay: polymerase ribozyme fitness, log enrichment relative to wild type (log ratio); higher = more active; in vitro selection for triplet polymerase activity
Summary of the method: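 Streptavidin-bead capture of gel-excised extended constructs, followed by RT-PCR, closed a single triplicate in vitro selection round. That round began by annealing PCR-built, transcribed mutant libraries of each subunit of a heterodimeric triplet polymerase ribozyme with a biotinylated primer, the partner subunit and triplets, then incubating them frozen at −7 °C. After Illumina sequencing of inputs and outputs, genotypes needed ≥10 input reads and ≥1 read per output. Fitness is the base-2 logarithm of genotype enrichment over wild-type enrichment, using inverse-variance-weighted replicate averages.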

Row | Variant | polymerase ribozyme fitness (log ratio)
1 | GACCAAUCUGCCCUCAGAGCUCGAGAACAUCUUCGGAUGCAGAGGAGGCAGGCUUCGGUGGCGCGAUAGCGCCAACGUGCUCACCCUCCAAUGCAUCCCACCAAAUGAUGAUGCCUGAAGAGCCUUGGUUUUUUG [C79G A84C C104A] | -4.75
2 | GACCAAUCUGCCCUCAGAGCUCGAGAACAUCUUCGGAUGCAGAGGAGGCAGGCUUCGGUGGCGCGAUAGCGCCAACGUGCUCAACCUCCAAUGAAUCCCACCACAUGAUGAUGCCUGAAGAGCCUUGGUUUUUUG [C79G C94A] | -2.62
3 | GACCAAUCUGCCCUCAGAGCUCGAGAACAUCUUCGGAUGCAGAGGAGGCAGGCUUCGGUGGCGCGAUAGCGCCAACGUCAUCAACCUCCAAUGCAUCCCACCACAUGAUGAUACCUGAAGAGCCUUGGUUUUUUA [C80A G113A G135A] | -3.66
4 | GACCAAUCUGCCCUCAGAGCUCGAGAACAUCUUCGGAUGCAGAGGAGGCAGGCUUCGGUGGCGCGAUAGCGCCAACGUCGUCAACCUCCAAUGCAUCCCACCACAUGAUGAUGCCUGAAGAGCCUUUGUUUUUUG [C80G G127U] | -6.14
5 | GACCAAUCUGCCCUCAGAGCUCGAGAACAUCUUCGGAUGCAGAGGAGGCAGGCUUCGGUGGCGCGAUAGCGCCAACGUGCUCACCCUCCAAUGCAUCCCACCACAUGAUGAUGCCUGAAGAGCCUUGGUUUUUUG [C79G A84C] | -2.61
6 | GACCAAUCUGCCCUCAGAGCUCGAGAACAUCUUCGGAUGCAGAGGAGGCAGGCUUCGGUGGCGCGAUAGCGCCAACGUCUUCAACCUCCAAUGCAUCCCAUCACAUGAUGUUGCCAGAAGAGCCUUGGUUUUUUG [C80U C101U A111U U116A] | -4.81
7 | GACCAAUCUGCCCUCAGAGCUCGAGAACAUCUUCGGAUGCAGAGGAGGCAGGCUUCGGUGGCGCGAUAGCGCCAACGUUUUCAACCUCCAAUGCAUCCCACCACAUGAUGAUGCCCGAAGAGCCUUGGUUUUUUG [C79U C80U U116C] | -4.27
8 | GACCAAUCUGCCCUCAGAGCUCGAGAACAUCUUCGGAUGCAGAGGAGGCAGGCUUCGGUGGCGCGAUAGCGCCAACGUUCUCAACCUCCGAUGCAUCCCACCACAUUAUGAUGCCUGAAGAGCCUUGGUUUUUUG [C79U A90G G107U] | -4.88
9 | GACCAAUCUGCCCUCAGAGCUCGAGAACAUCUUCGGAUGCAGAGGAGGCAGGCUUCGGUGGCGCGAUAGCGCCAACGUCUUCAACCUUCAAUGCAUCCCACCACAUGAUGGUGACUGAAGAGCCUUGGUUUUUUG [C80U C88U A111G C114A] | -4.84
10 | GACCAAUCUGCCCUCAGAGCUCGAGAACAUCUUCGGAUGCAGAGGAGGCAGGCUUCGGUGGCGCGAUAGCGCCAACGUUCUCAACCUCCAAUGCAUCCCACCACAUGAUGUAGCCUGAAGAGCAUUGGUUUUUUG [C79U A111U U112A C124A] | 1.11
11 | GACCAAUCUGCCCUCAGAGCUCGAGAACAUCUUCGGAUGCAGAGGAGGCAGGCUUCGGUGGCGCGAUAGCGCCAACGUGCUCAACCUCAAAUGCAUCCCACCACAUGAUGAUGCCUGAAGAGCCUUUGUUUUUUG [C79G C89A G127U] | -4.91
12 | GACCAAUCUGCCCUCAGAGCUCGAGAACAUCUUCGGAUGCAGAGGAGGCAGGCUUCGGUGGCGCGAUAGCGCCAACGUCAUCAACCUCCAAUGCACCCCACCACAUGAUGAUGCCUGAAGAGCCUUGGUUUUUUG [C80A U96C] | -3.2
13 | GACCAAUCUGCCCUCAGAGCUCGAGAACAUCUUCGGAUGCAGAGGAGGCAGGCUUCGGUGGCGCGAUAGCGCCAACGUGCUCGACCUCCAAUGCAUCCCACCACAUGAUGAUGCCUCAAGAGCCUUGGUUUUUUG [C79G A83G G117C] | -5.42
14 | GACCAAUCUGCCCUCAGAGCUCGAGAACAUCUUCGGAUGCAGAGGAGGCAGGCUUCGGUGGCGCGAUAGCGCCAACGUGCUCAACCUCCAAUGCAUCCCACUACAUGAUGAUGCCUGAAGAGCCUUGGUUUUUUG [C79G C102U] | -4.67
15 | GACCAAUCUGCCCUCAGAGCUCGAGAACAUCUUCGGAUGCAGAGGAGGCAGGCUUCGGUGGCGCGAUAGCGCCAACGUGCUCAACCUCCAAUUCAUCCCACCACAUGAUGAUGCGUGAAGAGCCUUGGUUUUUUG [C79G G93U C115G] | -4.32
16 | GACCAAUCUGCCCUCAGAGCUCGAGAACAUCUUCGGAUGCAGAGGAGGCAGGCUUCGGUGGCGCGAUAGCGCCAACGUCGUCAACCUCCAAUGCAUCCCACCAUAUGAUGAUGCCUGAAGAGCCUUGGUUUUUUG [C80G C104U] | -5.71
17 | GACCAAUCUGCCCUCAGAGCUCGAGAACAUCUUCGGAUGCAGAGGAGGCAGGCUUCGGUGGCGCGAUAGCGCCAACGUGCUCAACCUCUAAUGCAUCCCACCACAUGAUGAUGCCUAAAGAGCCUUGGUUUUUUG [C79G C89U G117A] | -4.75
18 | GACCAAUCUGCCCUCAGAGCUCGAGAACAUCUUCGGAUGCAGAGGAGGCAGGCUUCGGUGGCGCGAUAGCGCCAACGUGCUCAACCUCCAAUGCAUCCCACCACAUGAUGAUGCCUGAAGUGCCUUGGUUUUUUG [C79G A121U] | 0.316
19 | GACCAAUCUGCCCUCAGAGCUCGAGAACAUCUUCGGAUGCAGAGGAGGCAGGCUUCGGUGGCGCGAUAGCGCCAACGUGCUCAACCUCCAAUGCAUCCCACCACAUGAUGAUGCCUGAAGAGCGUUGGUUUUUUG [C79G C124G] | -0.0918
20 | GACCAAUCUGCCCUCAGAGCUCGAGAACAUCUUCGGAUGCAGAGGAGGCAGGCUUCGGUGGCGCGAUAGCGCCAACGUUCUCAACCUCCAAUGCAUCCCACUACAUGAUGAUGCCUAAAGAGCCUUGGUUUUUUG [C79U C102U G117A] | -3.4
21 | GACCAAUCUGCCCUCAGAGCUCGAGAACAUCUUCGGAUGCAGAGGAGGCAGGCUUCGGUGGCGCGAUAGCGCCAACGUCUUCAACCUGCAAUGCAUCCCACCACAUGAUGAUGCCUGAAGAGCCUUGGUUUUUUG [C80U C88G] | -1.25

— the RNAGym collection of RNA variant scans (doi:10.1073/pnas.2313332121)
